According to patent publication US20160200799A1:
Read-outs that look alike come from different tables or passages of the source.

How the values were obtained:
Assay in all cases: cell-based or functional assay
[1] = target: Influenza virus A/Indonesia/5/2005/PR8-IBCDC-RG2 (H5N1) (Influenza A virus A/Indonesia/5/2005/PR8-IBCDC-RG2 (H5N1))
[2] = target: Influenza virus A/Okuda/1957 (H2N2) (Influenza A virus A/Okuda/1957 (H2N2))
[3] = target: Influenza virus A/Suita/1/2009pdm (H1N1 2009 pandemic) (Influenza A virus A/Suita/1/2009pdm (H1N1pdm))
[4] = target: Influenza virus A/Panama/2007/1999 (H3N2) (Influenza A virus A/Panama/2007/1999 (H3N2))
[5] = target: Influenza virus A/Brisbane/59/2007 (H1N1) (Influenza A virus A/Brisbane/59/2007 (H1N1))
[6] = target: Influenza virus A/Indonesia/5/2005/PR8-IBCDC-RG2 (H5N1) (Influenza A virus A/Indonesia/5/2005/PR8-IBCDC-RG2 (H5N1)); remark: listed apart in the source
[7] = target: Influenza virus A/Okuda/1957 (H2N2) (Influenza A virus A/Okuda/1957 (H2N2)); remark: listed apart in the source
[8] = target: Influenza virus A/Suita/1/2009pdm (H1N1 2009 pandemic) (Influenza A virus A/Suita/1/2009pdm (H1N1pdm)); remark: listed apart in the source
[9] = target: Influenza virus A/Panama/2007/1999 (H3N2) (Influenza A virus A/Panama/2007/1999 (H3N2)); remark: listed apart in the source
[10] = target: Influenza virus A/Brisbane/59/2007 (H1N1) (Influenza A virus A/Brisbane/59/2007 (H1N1)); remark: listed apart in the source

F045-092 completely humanized IgG antibody (control anti-HA antibody)
Infection inhibition rate (%) at 0.024 µg/mL [1]: 0% | Infection inhibition rate (%) at 0.391 µg/mL [1]: 0% | Infection inhibition rate (%) at 0.98 µg/mL [1]: 0% | Infection inhibition rate (%) at 1.6 µg/mL [1]: 0% | Infection inhibition rate (%) at 6.3 µg/mL [1]: 0% | Infection inhibition rate (%) at 25.0 µg/mL [1]: 14.3% | Infection inhibition rate (%) at 100.0 µg/mL [1]: 28.2% | Infection inhibition rate (%) at 200.0 µg/mL [1]: 38.6% | Infection inhibition rate (%) [2]: 0% | Infection inhibition rate (%) at 0.024 µg/mL [2]: 0% | Infection inhibition rate (%) at 0.391 µg/mL [2]: 0% | Infection inhibition rate (%) at 1.6 µg/mL [2]: 0% | Infection inhibition rate (%) at 6.3 µg/mL [2]: 0% | Infection inhibition rate (%) at 25.0 µg/mL [2]: 0% | Infection inhibition rate (%) at 100.0 µg/mL [2]: 15.8% | Infection inhibition rate (%) at 200.0 µg/mL [2]: 39.4% | Infection inhibition rate (%) [3]: 0% | Infection inhibition rate (%) at 0.002 µg/mL [3]: 0% | Infection inhibition rate (%) at 0.006 µg/mL [3]: 0% | Infection inhibition rate (%) at 0.024 µg/mL [3]: 4.2% | Infection inhibition rate (%) at 0.391 µg/mL [3]: 4.2% | Infection inhibition rate (%) at 1.6 µg/mL [3]: 0% | Infection inhibition rate (%) at 6.3 µg/mL [3]: 6% | Infection inhibition rate (%) at 25.0 µg/mL [3]: 0% | Infection inhibition rate (%) at 100.0 µg/mL [3]: 16.1% | Infection inhibition rate (%) at 200.0 µg/mL [3]: 15.1% | Infection inhibition rate (%) [4]: 0% | Infection inhibition rate (%) at 0.391 µg/mL [4]: 1.9% | Infection inhibition rate (%) at 1.6 µg/mL [4]: 31.4% | Infection inhibition rate (%) at 6.3 µg/mL [4]: 42.9% | Infection inhibition rate (%) at 25.0 µg/mL [4]: 96.7% | Infection inhibition rate (%) at 100.0 µg/mL [4]: 99% | Infection inhibition rate (%) at 200.0 µg/mL [4]: 99.5% | Infection inhibition rate (%) [5]: 0% | Infection inhibition rate (%) at 0.002 µg/mL [5]: 0% | Infection inhibition rate (%) at 0.006 µg/mL [5]: 0% | Infection inhibition rate (%) at 0.024 µg/mL [5]: 0% | Infection inhibition rate (%) at 0.391 µg/mL [5]: 0% | Infection inhibition rate (%) at 1.6 µg/mL [5]: 0% | Infection inhibition rate (%) at 6.3 µg/mL [5]: 5.3% | Infection inhibition rate (%) at 25.0 µg/mL [5]: 24.4% | Infection inhibition rate (%) at 100.0 µg/mL [5]: 30.2% | Infection inhibition rate (%) at 200.0 µg/mL [5]: 58.4%

B1: F081-007 completely humanized IgG antibody (antibody, V domains shown)
VH: QVQLQQSGAEVKKPGSSVKVSCKASGGIFRKNAISWVRQAPGQGLEWMGGISAIFGTANYAQKFQGRVTITADESSNTVYMDLSRLRSEDTAIYYCASHPTYHFDKSGYRFDSWGQGTLVTVSS
VL: QSVLTQPPSVSAAPGQKVTISCSGSSSNIGNNYVSWYQQLPGTAPKLLIYDNNKRPSGIPDRFSGSKSGTSATLGITGLQTGDEADYYCGTWDSSLSAGVFGGGTKLTVLG
IC50 of neutralization [6]: 0.36 µg/mL | Infection inhibition rate (%) [6]: 10.2% | Infection inhibition rate (%) at 0.024 µg/mL [6]: 7% | Infection inhibition rate (%) at 0.391 µg/mL [6]: 55.3% | Infection inhibition rate (%) at 1.6 µg/mL [6]: 85.1% | Infection inhibition rate (%) at 6.3 µg/mL [6]: 100% | Infection inhibition rate (%) at 25.0 µg/mL [6]: 100% | Infection inhibition rate (%) at 100.0 µg/mL [6]: 100% | Infection inhibition rate (%) at 200.0 µg/mL [6]: 100% | Infection inhibition rate (%) at 0.024 µg/mL [7]: 0% | Infection inhibition rate (%) at 0.391 µg/mL [7]: 37.2% | Infection inhibition rate (%) at 0.98 µg/mL [7]: 16.5% | Infection inhibition rate (%) at 1.6 µg/mL [7]: 79% | Infection inhibition rate (%) at 6.3 µg/mL [7]: 92.6% | Infection inhibition rate (%) at 25.0 µg/mL [7]: 98.2% | Infection inhibition rate (%) at 100.0 µg/mL [7]: 98.9% | Infection inhibition rate (%) at 200.0 µg/mL [7]: 98.9% | Infection inhibition rate (%) [8]: 49.8% | Infection inhibition rate (%) at 0.002 µg/mL [8]: 29.3% | Infection inhibition rate (%) at 0.006 µg/mL [8]: 32% | Infection inhibition rate (%) at 0.024 µg/mL [8]: 45.3% | Infection inhibition rate (%) at 0.391 µg/mL [8]: 83.1% | Infection inhibition rate (%) at 1.6 µg/mL [8]: 96.8% | Infection inhibition rate (%) at 6.3 µg/mL [8]: 100% | Infection inhibition rate (%) at 25.0 µg/mL [8]: 100% | Infection inhibition rate (%) at 100.0 µg/mL [8]: 100% | Infection inhibition rate (%) at 200.0 µg/mL [8]: 100% | Infection inhibition rate (%) [9]: 0% | Infection inhibition rate (%) at 0.391 µg/mL [9]: 0% | Infection inhibition rate (%) at 1.6 µg/mL [9]: 0% | Infection inhibition rate (%) at 6.3 µg/mL [9]: 0% | Infection inhibition rate (%) at 25.0 µg/mL [9]: 0% | Infection inhibition rate (%) at 100.0 µg/mL [9]: 0% | Infection inhibition rate (%) at 200.0 µg/mL [9]: 0% | Infection inhibition rate (%) [10]: 36.3% | Infection inhibition rate (%) at 0.002 µg/mL [10]: 0% | Infection inhibition rate (%) at 0.006 µg/mL [10]: 9.9% | Infection inhibition rate (%) at 0.024 µg/mL [10]: 27.9% | Infection inhibition rate (%) at 0.391 µg/mL [10]: 59.2% | Infection inhibition rate (%) at 1.6 µg/mL [10]: 82.4% | Infection inhibition rate (%) at 6.3 µg/mL [10]: 90.1% | Infection inhibition rate (%) at 25.0 µg/mL [10]: 100% | Infection inhibition rate (%) at 100.0 µg/mL [10]: 100% | Infection inhibition rate (%) at 200.0 µg/mL [10]: 100%

B2: F083-336 completely humanized IgG antibody (antibody, V domains shown)
VH: QVQLQQSGAEVKQPGSSVKVSCKASGGIFRSNAISWVRQAPGQGLEWMGGIVALFGTANYAQKFQGRVTITADESTSTVYMELSSLRSEDTARYYCARNSGYHISGFYLDYWGQGTLVTVSS
VL: EIVLTQSPSSLSASVGDRVTITCRASQGISNYLAWYQQRPGKVPKLLIYTASTLLSGVPSRFSGGGSGTDYTLTISSLQPEDVATYYCQEYKSVPLTFGPGTKVEIK
Infection inhibition rate (%) [6]: 1% | Infection inhibition rate (%) at 0.024 µg/mL [6]: 0% | Infection inhibition rate (%) at 0.391 µg/mL [6]: 22.1% | Infection inhibition rate (%) at 1.6 µg/mL [6]: 40.5% | Infection inhibition rate (%) at 6.3 µg/mL [6]: 66.4% | Infection inhibition rate (%) at 25.0 µg/mL [6]: 86.7% | Infection inhibition rate (%) at 100.0 µg/mL [6]: 89.3% | Infection inhibition rate (%) at 200.0 µg/mL [6]: 98.5% | Infection inhibition rate (%) [7]: 2.5% | Infection inhibition rate (%) at 0.024 µg/mL [7]: 0% | Infection inhibition rate (%) at 0.391 µg/mL [7]: 19.9% | Infection inhibition rate (%) at 1.6 µg/mL [7]: 39.8% | Infection inhibition rate (%) at 6.3 µg/mL [7]: 81.5% | Infection inhibition rate (%) at 25.0 µg/mL [7]: 86.7% | Infection inhibition rate (%) at 100.0 µg/mL [7]: 85.9% | Infection inhibition rate (%) at 200.0 µg/mL [7]: 98.9% | Infection inhibition rate (%) [8]: 30.7% | Infection inhibition rate (%) at 0.002 µg/mL [8]: 0% | Infection inhibition rate (%) at 0.006 µg/mL [8]: 13.8% | Infection inhibition rate (%) at 0.024 µg/mL [8]: 30.7% | Infection inhibition rate (%) at 0.391 µg/mL [8]: 62.1% | Infection inhibition rate (%) at 1.6 µg/mL [8]: 93.2% | Infection inhibition rate (%) at 6.3 µg/mL [8]: 100% | Infection inhibition rate (%) at 25.0 µg/mL [8]: 100% | Infection inhibition rate (%) at 100.0 µg/mL [8]: 100% | Infection inhibition rate (%) at 200.0 µg/mL [8]: 100% | Infection inhibition rate (%) [9]: 2.9% | Infection inhibition rate (%) at 0.391 µg/mL [9]: 4.8% | Infection inhibition rate (%) at 1.6 µg/mL [9]: 0% | Infection inhibition rate (%) at 6.3 µg/mL [9]: 0% | Infection inhibition rate (%) at 25.0 µg/mL [9]: 0% | Infection inhibition rate (%) at 100.0 µg/mL [9]: 0% | Infection inhibition rate (%) at 200.0 µg/mL [9]: 0% | Infection inhibition rate (%) at 0.002 µg/mL [10]: 2.3% | Infection inhibition rate (%) at 0.006 µg/mL [10]: 7.3% | Infection inhibition rate (%) at 0.024 µg/mL [10]: 11.1% | Infection inhibition rate (%) at 0.391 µg/mL [10]: 42.4% | Infection inhibition rate (%) at 0.98 µg/mL [10]: 32.4% | Infection inhibition rate (%) at 1.6 µg/mL [10]: 72.1% | Infection inhibition rate (%) at 6.3 µg/mL [10]: 90.5% | Infection inhibition rate (%) at 25.0 µg/mL [10]: 97.3% | Infection inhibition rate (%) at 100.0 µg/mL [10]: 100% | Infection inhibition rate (%) at 200.0 µg/mL [10]: 100%
